B1: MtERS: glutamyl-tRNA synthetase from M. thermoautotrophicum (protein, listed as Methanobacterium thermoautotrophicum)
chain: VVPVEDLVYRYALLNAVKHRGRANPGAVMGAVMSNEPELRKMAPQVKEAVEAAVERVNSLSPEEQQQEMERLGLEITERKQKKRKGLRELAGVKGEVVLRFAPNPSGPLHIGHARAAILNHEYARKYDGRLILRIEDTDPRRVDPEAYDMIPADLEWLGVEWDETVIQSDRMETYYEYTEKLIERGGAYVCTCRPEEFRELKNRGEACHCRSLGFRENLQRWREMFEMKEGSAVVRVKTDLNHPNPAIRDWVSMRIVEAEHPRTGTRYRVYPMMNFSVAVDDHLLGVTHVLRGKDHLANREKQEYLYRHLGWEPPEFIHYGRLKMDDVALSTSGAREGILRGEYSGWDDPRLGTLRAIARRGIRPEAIRKLMVEIGVKIADSTMSWKKIYGLNRSILEEEARRYFFAADPVKLEVVGLPGPVRVERPLHPDHPEIGNRVLELRGEVYLPGDDLGEGPLRLIDAVNVIYSGGELRYHSEGIEEARELGASMIHWVPAESALEAEVIMPDASRVRGVIEADASELEVDDVVQLERFGFARLDSAGPGMVFYYAHK
B2: PhERS: glutamyl-tRNA synthetase from P. horikoshii (protein, listed as Pyrococcus horikoshii)
chain: MDVEKIALKHALINAIEHGGKANLKAVIGKVLGENPELRPRAKEIIPIINKVVEEVNSLARDEQLEKLKDIYPEYFEKKEEKKEKKGLPLLPKAEKGKVVTRFAPNPDGAFHLGNARAAILSYEYAKMYGGKFILRFDDTDPKVKRPEPIFYKMIIEDLEWLGIKPDEIVYASDRLEIYYKYAEELIKMGKAYVCTCPPEKFRELRDKGIPCPHRDEPVEVQLERWKKMLNGEYKEGEAVVRIKTDLNHPNPAVRDWPALRIIDNPNHPRTGNKYRVWPLYNFASAIDDHELGVTHIFRGQEHAENETRQRYIYEYFGWEYPVTIHHGRLSIEGVVLSKSKTRKGIEEGKYLGWDDPRLGTIRALRRRGILPEAIKELIIEVGLKKSDATISWENLAAINRKLVDPIANRYFFVADPIPMEVEGAPEFIAEIPLHPDHPERGVRRLKFTPERPVYVSKDDLNLLKPGNFVRLKDLFNVEILEVGDKIRARFYSFEYEIAKKNRWKMVHWVTEGRPCEVIIPEGDELVVRKGLLEKDAKVQVNEIVQFERFGFVRIDRIEGDKVIAIYAHK
B3: MmERS: glutamyl-tRNA synthetase from M. mazei (protein, listed as Methanosarcina mazeii)
chain: MTLSPEDIKIIEKYALQNAVKYGKAPQPKAVMGKVMGECPQLRADPSGVSAALENIVSEIAKGNPEAWEARLSEIAPELIEALSVKKEPDKGLKPLEGAETGKVVMRFAPNPNGPATLGSSRGMVVNSEYVKVYKGKFILRFDDTDPDIKRPMLEAYDWYMDDFKWLGVVPDQVVRASDRFPIYYDYARKLIEMGKAYVCFCKGEDFKRLKDSKKACPHRDTDPEENLMHWEKMLAGEYEDQQAVLRIKTDIEHKDPALRDWGAFRIRKMSHPRPEIGNKYIVWPLLDFAGAIEDHELGMTHIIRGKDLIDSEKRQTYIYKYFGWTYPKTTHWGRVKIHEFGKFSTSTLRKAIESGEYSGWDDPRLPTIRAIRRRGIRAEALKKFMIEMGVGMTDVSISMESLYAENRKIVDPVANRYFFVWNPVELEIEGMKPVVAKVPRHPTDHARGMREISIENKVLVCAEDIEKLNVGSVLRLKDLCNVEITSLSPLRVKRSETSLEDLKKAKGKIIHWVPVDGIPVKVCGPEGDIEGTGERGIETELDNIVQFERFGFCRIDAVDGENVVAYFAHK
B4: AfERS: glutamyl-tRNA synthetase from A. fulgidus (protein, listed as Archaeoglobus fulgidus)
chain: VKEVIMKYVVQNAAKYGKASEKAVMGKVMAENPELRKKAKEVLELVKECITEFEALSEEVRKELIKKYSMDSEAKRELETKKLPELEGAEKGKVVMRFAPNPNGPPTLGSARGIIVNGEYAKMYEGKYIIRFDDTDPRTKRPMIEAYEWYLEDIEWLGYKPDEVIYASRRIPIYYDYARKLIEMGKAYTCFCSQEEFKKFRDSGEECPHRNISVEDTLEVWERMLEGDYEEGEVVLRIKTDMRHKDPAIRDWVAFRIIKESHPLVGDKYVVYPTLDFESAIEDHLLGITHIIRGKDLIDSERRQRYIYEYFGWIYPITKHWGRVKIFEFGKLSTSSIKKDIERGKYEGWDDPRLPTLRAFRRRGFEPEAIKSFFLSLGVGENDVSVSLKNLYAENRKIIDRKANRYFFIWGPVKIEIVNLPEKKEVELPLNPHTGEKRRLKGERTIYVTKDDFERLKGQVVRLKDFCNVLLDEKAEFMGFELEGVKKGKNIIHWLPESEAIKGKVIGEREAEGLVERNAVRDVGKVVQFERFAFCKVESADEELVAVYTHP
B5: EcERS: E. coli glutamyl-tRNA synthetase, used as a control (protein, UniProt P04805 1-471, looked up)
Glutamate--tRNA ligase: MKIKTRFAPSPTGYLHVGGARTALYSWLFARNHGGEFVLRIEDTDLERSTPEAIEAIMDGMNWLSLEWDEGPYYQTKRFDRYNAVIDQMLEEGTAYKCYCSKERLEALREEQMAKGEKPRYDGRCRHSHEHHADDEPCVVRFANPQEGSVVFDDQIRGPIEFSNQELDDLIIRRTDGSPTYNFCVVVDDWDMEITHVIRGEDHINNTPRQINILKALKAPVPVYAHVSMINGDDGKKLSKRHGAVSVMQYRDDGYLPEALLNYLVRLGWSHGDQEIFTREEMIKYFTLNAVSKSASAFNTDKLLWLNHHYINALPPEYVATHLQWHIEQENIDTRNGPQLADLVKLLGERCKTLKEMAQSCRYFYEDFAEFDADAAKKHLRPVARQPLEVVRDKLAAITDWTAENVHHAIQATADELEVGMGKVGMPLRVAVTGAGQSPALDVTVHAIGKTRSIERINKALDFIAERENQQ
B6: AE(GC): archaeal glutamyl consensus-derived amber suppressor tRNA, GC base pair at position 10-28 (nucleic acid)
chain: GCCCCGGUGGUGUAGCCCGGCCAAGCACGCGGGCCUCUAAAGCCCGCGACCCGGGUUCAAAUCCCGGCCGGGGCACCA
modifications: chemistry not fully specified

Legend:
[1] = tested on: β-lactamase reporter gene containing an amber mutation at the permissive site Ala184; format: cell-based, E. coli; settings: for ampicillin IC50 fold greater with AE(GC) tRNA than with AE(GU) tRNA: same synthetase co-expressed
Description: Ampicillin IC50 value measurements: To examine the orthogonality of tRNAs, 10 μL of E. coli DH10B cells (1 cfu/μL) carrying a tRNA-expressing plasmid were plated on a series of LB agar plates containing chloramphenicol and varying concentrations of ampicillin. To measure the IC50 values for cells carrying both tRNA- and synthetase-expressing plasmids, cells were plated on LB agar plates containing chloramphenicol, kanamycin, and varying concentrations of ampicillin. In the initial series, cells were plated on five ampicillin concentrations varying from 0 to 1000 μg/mL and incubated overnight at 37° C. In subsequent series, cells were plated on a narrower ampicillin concentration range surrounding the value initial ampicillin IC50 value estimate. […] Measurements were made in duplicate or triplicate for each cell strain.
Orthogonality of tRNAs: To test the activity and cross-reactivity of the AE(GU), AQ(GU), and AQ(GC) tRNAs, their genes were inserted into plasmid pACKO-A184TAG. E. coli cells were transformed with the resulting plasmids, pAC-AE(GU), pAC-AQ(GU), and pAC-AQ(GC), and the ampicillin IC50 values for the cells were assayed. The tRNA-expressing pAC-based plasmids carry a β-lactamase reporter gene containing an amber mutation at the permissive site Ala184, which serves as a useful reporter for amber codon suppression. Acylation of an amber suppressor tRNA causes the incorporation of the activated amino acid at position 184 of β-lactamase, resulting in suppression of the amber stop codon, production of active full-length β-lactamase and resistance to ampicillin. Because an orthogonal tRNA should not cross-react with endogenous aminoacyl-tRNA synthetases, strains transformed with an orthogonal suppressor tRNA alone should survive only on low concentrations of ampicillin. To assess the orthogonality of designed tRNAs, E. coli transformants were plated on LB agar plates containing varying concentrations of ampicillin (FIG. 2).

whole halobacterial tRNA = experiment: in vitro aminoacylation assay with [3H]-glutamic acid, whole halobacterial tRNA; format: biochemical, Halobacterium sp. NRC-1; settings: 750 nM synthetase, 15 minutes at 37° C.
Description: (§1) In vitro aminoacylation assays: Reactions were carried out as described previously (see, e.g., Hoben, P. and Soll, D. (1985) Glutaminyl-tRNA synthetase of Escherichia coli. Methods Enzymol., 113:55-59). Each 20-μL reaction contained 50 mM Tris-HCl (pH 7.5), 30 mM KCl, 20 mM MgCl2, 0.1 mg/mL BSA, 5 mM glutathione, 2.5 mM ATP, 100 nM 1-[G-^3H]Glutamic acid (Amersham), 750 nM aminoacyl-tRNA synthetase, and 40 μM whole halobacterial tRNA. Reactions were allowed to proceed for 15 minutes at 37° C.
Orthogonality of archaeal glutamyl-tRNA synthetases in E. coli: The ampicillin IC50 measurements described above provide insights into the orthogonality of consensus-designed tRNAs, but provide no information about the orthogonality of archaeal glutamyl-tRNA synthetases in E. coli. To investigate synthetase orthogonality, the AfERS, MnERS, MtERS, and PhERS genes were inserted into a protein overexpression vector. E. coli glutamyl-tRNA synthetase (EcERS) was inserted into the same vector for use as a control. Synthetases were overexpressed in E. coli, purified to homogeneity, and used in an in vitro aminoacylation assay with whole tRNA prepared from either E. coli or the halophilic archaebacterium Halobacterium sp. NRC-1. […] In these experiments, it is unclear why AfERS and MmERS could not aminoacylate whole halobacterial tRNA in vitro (≦5 pmol/L). Without being limited to one theory, it is possible that the enzyme purification and/or assay conditions employed were deleterious to the aminoacylation activity of AfERS and MmERS. Another possibility is that subtle differences in tRNA identity elements might preclude recognition of a given archaeal tRNA^Glu by all archaeal glutamyl-tRNA synthetases. To test the latter, the activity of MmERS was investigated using the in vitro aminoacylation assay with whole tRNA derived from E. coli expressing the AE(GC) tRNA.

[2] = tested on: whole tRNA derived from E. coli expressing the AE(GC) tRNA; experiment: in vitro aminoacylation assay with whole tRNA from E. coli expressing AE(GC) tRNA; format: biochemical
Description: as §1
(§2) Orthogonality of archaeal glutamyl-tRNA synthetases in E. coli: The ampicillin IC50 measurements described above provide insights into the orthogonality of consensus-designed tRNAs, but provide no information about the orthogonality of archaeal glutamyl-tRNA synthetases in E. coli. To investigate synthetase orthogonality, the AfERS, MnERS, MtERS, and PhERS genes were inserted into a protein overexpression vector. E. coli glutamyl-tRNA synthetase (EcERS) was inserted into the same vector for use as a control. Synthetases were overexpressed in E. coli, purified to homogeneity, and used in an in vitro aminoacylation assay with whole tRNA prepared from either E. coli or the halophilic archaebacterium Halobacterium sp. NRC-1. […] In these experiments, it is unclear why AfERS and MmERS could not aminoacylate whole halobacterial tRNA in vitro (≦5 pmol/L). […]

whole E. coli tRNA = experiment: in vitro aminoacylation assay with [3H]-glutamic acid, whole E. coli tRNA; format: biochemical; settings: 750 nM synthetase, 15 minutes at 37° C.
Description: as §1, §2

[3] = synthetase co-expressed with AE(GU) tRNA

Row | Molecule | ampicillin IC50 fold higher than cells expressing AE(GU) alone [1, 3] [fold] | aminoacylation of whole archaeal (halobacterial) tRNA with [3H]-glutamic acid (whole halobacterial tRNA) [pmol/L] | ampicillin IC50 fold greater with AE(GC) tRNA than with AE(GU) tRNA [1] [fold] | other results
1 | B1 | 6 | 530 |  | 
2 | B2 | 12 | 1100 | ~3.5 | amber suppression efficiency fold less than that of the tyrosyl-tRNA synthetase ([1]; together with the AE(GC) tRNA in E. coli): ~2 fold
3 | B3 | 20 |  | 4.5 | ampicillin IC50 fold lower than M. jannaschii-derived tyrosine pair [1, 3]: 4.5 fold; ampicillin IC50 fold lower than M. thermoautotrophicum-derived leucine pair [1, 3]: 10 fold; aminoacylation activity [2]: no activity was observed
4 | B4 | 7 |  |  | 
5 | B5 |  | 1.7 |  | aminoacylation of whole E. coli tRNA with [3H]-glutamic acid (whole E. coli tRNA): 14,000 pmol/L
6 | B6 |  |  |  | ampicillin IC50 fold increase relative to cells expressing AE(GU) tRNA alone ([1]; tRNA alone, no synthetase): 4 fold

From US7527943B2, “Compositions of orthogonal glutamyl-tRNA and aminoacyl-tRNA synthetase pairs and uses thereof” (The Scripps Research Institute, priority 2003, dated 2009)
